Data taken from paper PMC2580753.
Like-named read-outs stand apart in the source and are kept apart here.

How the values were obtained:
Test in all cases: SPR
[1] = target: Fcα (IgA1-Fc core fragment, CH2-CH3) (UniProt P01876); settings: pH 7.4, 25 °C, 150 mM NaCl, TBS-P: 20 mM Tris
[2] = target: mIgA1κ (monomeric myeloma IgA1, kappa light chain) (UniProt P01876); settings: pH 7.4, 25 °C, 150 mM NaCl, TBS-P: 20 mM Tris
[3] = target: mIgA1κ (monomeric myeloma IgA1, kappa light chain) (UniProt P01876); settings: pH 7.4, 25 °C, 150 mM NaCl, TBS-P: 20 mM Tris; remark: listed apart in the source
[4] = target: Monomeric IgA1 (Mce), a naturally undergalactosylated myeloma IgA1 protein (human)
[5] = target: Monomeric myeloma patient-derived IgA1κ (mIgA1κ) (human)
[6] = target: Monomeric myeloma patient-derived IgA1λ (mIgA1λ) (human)
[7] = target: Deglycosylated mIgA1κ (N-glycans removed enzymatically) (human)
[8] = target: Monomeric myeloma patient-derived IgA1κ (mIgA1κ) (human); remark: listed apart in the source
[9] = target: Deglycosylated mIgA1κ (N-glycans removed enzymatically) (human); remark: listed apart in the source
[10] = target: Monomeric myeloma patient-derived IgA1κ (mIgA1κ) (human); remark: listed apart in the source

Sequence of mIgA1κ (monomeric myeloma IgA1, kappa light chain) (P01876 whole entry): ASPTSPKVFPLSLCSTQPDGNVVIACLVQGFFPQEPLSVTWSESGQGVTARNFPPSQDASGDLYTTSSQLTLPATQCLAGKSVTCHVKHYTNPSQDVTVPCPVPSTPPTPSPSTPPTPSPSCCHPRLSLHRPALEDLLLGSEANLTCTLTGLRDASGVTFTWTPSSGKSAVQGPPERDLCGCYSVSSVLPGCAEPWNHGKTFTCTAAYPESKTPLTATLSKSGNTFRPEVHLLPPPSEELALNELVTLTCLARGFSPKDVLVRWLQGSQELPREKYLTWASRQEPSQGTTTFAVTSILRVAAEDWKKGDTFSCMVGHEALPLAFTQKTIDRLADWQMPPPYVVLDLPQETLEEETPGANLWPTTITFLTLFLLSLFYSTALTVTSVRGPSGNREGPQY
Sequence of Fcα (IgA1-Fc core fragment, CH2-CH3) (P01876 whole entry, the tested form may be a part): as the sequence (P01876 whole entry) above
Sequence of Soluble recombinant FcαRI ectodomain (P24071 22-227): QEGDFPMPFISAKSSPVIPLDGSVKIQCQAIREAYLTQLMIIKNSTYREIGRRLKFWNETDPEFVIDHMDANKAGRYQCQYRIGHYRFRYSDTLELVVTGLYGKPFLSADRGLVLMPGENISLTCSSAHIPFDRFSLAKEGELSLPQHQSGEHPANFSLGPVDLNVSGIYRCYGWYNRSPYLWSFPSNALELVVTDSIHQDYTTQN

Substance: FcαRI (CD89) soluble ectodomain
- k1off [1]: 0.0278 s⁻¹
- k1on [1]: 461000 M/s
- k2off [1]: 0.054 s⁻¹
- k2on [1]: 447000 M/s
- k1off [2]: 0.0266 s⁻¹
- k1on [2]: 355000 M/s
- k2off [2]: 0.074 s⁻¹
- k2on [2]: 304000 M/s
- k1off [3]: 0.0267 s⁻¹
- k1on [3]: 317000 M/s
- k2off [3]: 0.096 s⁻¹
- k2on [3]: 315000 M/s

Substance: Soluble recombinant FcαRI ectodomain (from UniProt P24071 22-227) (receptor)
- KD1 (first binding event) [4]: 72.3 nM
- KD1 (two-site equilibrium model) [4]: 40.8 nM
- KD2 (second binding event) [4]: 222 nM
- KD2 (two-site equilibrium model) [4]: 403 nM
- KD1 (first binding event) [5]: 74.9 nM
- KD1 (two-site equilibrium model) [5]: 40.2 nM
- KD1 at pH 5.5 (first binding event) [5]: 837 nM
- KD2 (second binding event) [5]: 244 nM
- KD2 (two-site equilibrium model) [5]: 452 nM
- KD2 at pH 5.5 (second binding event) [5]: 2.53 μM
- k1off (first binding event) [5]: 0.0266 s⁻¹
- k1on (first binding event) [5]: 355000 M/s
- k2on (second binding event) [5]: 304000 M/s
- KD1 (two-site equilibrium model) [6]: 47.6 nM
- KD2 (second binding event) [6]: 195 nM
- KD2 (two-site equilibrium model) [6]: 371 nM
- k1off (first binding event) [6]: 0.0254 s⁻¹
- k1on (first binding event) [6]: 312000 M/s
- k2off (second binding event) [6]: 0.102 s⁻¹
- k2on (second binding event) [6]: 525000 M/s
- KD1 (two-site equilibrium model) [7]: 42.6 nM
- KD2 (two-site equilibrium model) [7]: 582 nM
- KD1 (two-site equilibrium model) [8]: 45 nM
- KD2 (two-site equilibrium model) [8]: 571 nM
- KD1 (first binding event) [9]: 78.4 nM
- KD2 (second binding event) [9]: 320 nM
- k1off (first binding event) [9]: 0.0258 s⁻¹
- k1on (first binding event) [9]: 329000 M/s
- k2on (second binding event) [9]: 187000 M/s
- k1off (first binding event) [10]: 0.0267 s⁻¹
- k1on (first binding event) [10]: 317000 M/s
- k2on (second binding event) [10]: 315000 M/s
